# B1: Omi-32 Fab (Fab, V domains shown)
# VH: EVQLVESGGGVVQPGRSLRLSCAASGFTFSNYGMHWVRQAPGKGLEWVAVYWYDGGNKFYADSVKGRFTISRDNSKNTLYLQMNSLRVEDTAVYYCARDTAPPDYWGQGTLVTVSS
# VL: AIRMTQSPGTLSLSPGERATLSCRASQSISSSFLAWYQQKPGQAPRLLIYGASSRATGIPDRFSGSGSGTDFTLTISRLEPEDFAVYYCQQYGTSPRLTFGGGTKVDIK
# What was measured:
# [1] = target: T1, BA.4/5 RBD with BAP-His tag, biotinylated (SARS-CoV-2 Omicron BA.4/5, L452R | F486V | T478K | E484A | N501Y, biotin (on the BAP tag, by co-expressed ER-localized biotin ligase BirA)); assay: SPR; settings: both partners purified
# [2] = target: T1, BA.4/5 RBD with BAP-His tag, …; assay: cell-based or functional assay
binder,measurement,setting,value
B1,fold increase in on-rate against BA.2 RBD,[1],5 fold
same,"pseudoviral neutralization of BA.4/5, fold enhancement compared to BA.2",[2],77 fold

# From article doi:10.1101/2022.05.21.492554 (2022)
